Results from patent publication US20200317768A1 (published 2020).

How the values were obtained:
[1] = biological target: T1, Mouse latent myostatin (mouse, UniProt O08689 26-267; O08689 268-376); assay: SPR (BIACORE T200), 37 C, pH5.8, avidity condition (capture 185 RU), 1:1 fit; pH 5.8
T1 construct: signal 1-24
T1 sequence 1: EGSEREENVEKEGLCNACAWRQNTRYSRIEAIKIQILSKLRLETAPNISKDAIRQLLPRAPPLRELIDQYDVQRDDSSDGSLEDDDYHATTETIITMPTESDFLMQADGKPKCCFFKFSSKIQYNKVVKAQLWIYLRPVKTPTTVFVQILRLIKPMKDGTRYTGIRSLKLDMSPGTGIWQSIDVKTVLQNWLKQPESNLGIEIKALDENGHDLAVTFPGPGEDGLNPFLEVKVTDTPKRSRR
T1 sequence 2: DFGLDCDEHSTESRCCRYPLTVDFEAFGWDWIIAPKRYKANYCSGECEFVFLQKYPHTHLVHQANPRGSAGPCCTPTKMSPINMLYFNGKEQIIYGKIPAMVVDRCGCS

[2] = biological target: T2, Cynomolgus monkey latent myostatin (cynomolgus monkey, UniProt Q95J86 25-266; Q95J86 267-375); assay: as above
T2 construct: signal 1-24; also called Cyno latent myostatin
T2 sequence 1: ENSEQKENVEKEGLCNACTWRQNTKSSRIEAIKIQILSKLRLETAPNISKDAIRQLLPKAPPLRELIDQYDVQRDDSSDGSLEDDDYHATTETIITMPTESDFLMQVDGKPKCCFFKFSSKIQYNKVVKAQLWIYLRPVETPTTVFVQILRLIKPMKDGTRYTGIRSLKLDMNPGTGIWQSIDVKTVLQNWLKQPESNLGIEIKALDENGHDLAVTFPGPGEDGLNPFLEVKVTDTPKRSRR
T2 sequence 2: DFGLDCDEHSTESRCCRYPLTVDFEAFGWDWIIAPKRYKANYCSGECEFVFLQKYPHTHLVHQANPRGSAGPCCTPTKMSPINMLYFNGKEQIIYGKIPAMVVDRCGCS

[3] = biological target: T2, Cynomolgus monkey latent myostatin; assay: SPR (BIACORE T200), 37 C, pH5.8, 1:1 fit; title prints avidity, by the text the affinity condition (capture 18.5 RU); pH 5.8
Procedure: (§1) The kinetic parameters of anti-latent myostatin antibodies against human, cynomolgus monkey (cyno), and mouse latent myostatin were assessed at 37° C. at pH7.4 using a BIACORE® T200 instrument (GE Healthcare). ProA/G (Pierce) was immobilized onto all flow cells of a CM4 chip using amine coupling kit (GE Healthcare). Anti-latent myostatin antibody and analytes were prepared in ACES pH7.4 (20 mM ACES, 150 mM NaCl, 1.2 mM CaCl₂), 0.05% TWEEN® 20, 0.005% NaN₃). […] Then human, cyno, or mouse latent myostatin was injected at 3.125 to 50 nM prepared by two-fold serial dilution, followed by dissociation. The sensor surface was regenerated with 25 mM NaOH. Kinetic parameters were determined by processing and fitting the data to a 1:1 binding model using BIACORE® T200 Evaluation software, version 2.0 (GE Healthcare).
(§2) All experimental settings were the same as in Example 7, except that measurements were also performed in ACES pH5.8 buffer in addition to ACES pH7.4 condition. Some antibodies were only measured against human latent myostatin. Antibody capture level was aimed at 185 RU and 18.5 RU, for avidity and affinity assay, respectively. Kinetic parameters were determined using 1:1 Binding fitting using BIACORE® T200 Evaluation software, version 2.0 (GE Healthcare).

[4] = biological target: T3, Human latent myostatin (human, UniProt O14793 25-266; O14793 267-375); assay: as above
T3 construct: Biotinylated in the ELISAs; also called human myostatin latent form
T3 sequence 1: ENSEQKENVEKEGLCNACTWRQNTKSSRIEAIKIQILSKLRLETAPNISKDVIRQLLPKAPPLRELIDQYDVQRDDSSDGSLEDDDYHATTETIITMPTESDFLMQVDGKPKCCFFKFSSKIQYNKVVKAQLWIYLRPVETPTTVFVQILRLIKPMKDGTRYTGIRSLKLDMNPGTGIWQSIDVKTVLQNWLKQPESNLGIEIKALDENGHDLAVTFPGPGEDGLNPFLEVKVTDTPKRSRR
T3 sequence 2: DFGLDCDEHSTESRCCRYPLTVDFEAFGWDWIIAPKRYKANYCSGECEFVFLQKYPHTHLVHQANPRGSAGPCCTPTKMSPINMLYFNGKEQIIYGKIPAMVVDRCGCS
Procedure: as §1, §2

[5] = biological target: T1, Mouse latent myostatin; assay: SPR (BIACORE T200), 37 C, pH7.4, 1:1 fit; title prints avidity, by the text the affinity condition (capture 18.5 RU); pH 7.4
Procedure: as §1, §2

[6] = biological target: T2, Cynomolgus monkey latent myostatin; assay: as above
Procedure: as §1, §2

[7] = biological target: T3, Human latent myostatin; assay: as above
Procedure: as §1, §2

[8] = biological target: T3, Human latent myostatin; assay: SPR (BIACORE), additional dissociation phase at pH5.8 after dissociation at pH7.4, Scrubber 2.0 fit

B1: MS_M103205H000-SG1/M103202LO00-SK1 (antibody, human IgG1, kappa, V domains shown)
VH: QVTLKESGPVLVKPTETLTLTCTVSGIDLSSYDISWVRQAPGKGLEWVGIISYAGSTYYASWAKGRLTISKDTSKNQVVLTMTNMDPVDTATYYCARGVPAYSTGGDLWGQGTLVTVSS
VL: DIVMTQSPATLSLSPGERATLSCQSSQSVYDNNWLSWFQQKPGQPPKLLIYWASTLASGVPSRFSGSGSGTDFTLTISSLQPEDAATYYCAGGYGGGLYAFGQGTKVEIKR
notes: Humanized MST1032, not pH-dependent; also called MS1032LO00-SG1; Ab001
- Kd [1]: 0.0087 nM
- koff [1]: 2.02e-05 s⁻¹
- kon [1]: 2.32e+06 M⁻¹ s⁻¹
- Kd [2]: 0.00883 nM
- koff [2]: 1.58e-05 s⁻¹
- kon [2]: 1.79e+06 M⁻¹ s⁻¹
- Kd [3]: 0.139 nM
- koff [3]: 0.000196 s⁻¹
- kon [3]: 1.41e+06 M⁻¹ s⁻¹
- Kd [4]: 0.215 nM
- koff [4]: 0.000235 s⁻¹
- kon [4]: 1.09e+06 M⁻¹ s⁻¹
- Kd [5]: 0.122 nM
- koff [5]: 0.00016 s⁻¹
- kon [5]: 1.31e+06 M⁻¹ s⁻¹
- Kd [6]: 0.209 nM
- koff [6]: 0.000213 s⁻¹
- kon [6]: 1.02e+06 M⁻¹ s⁻¹
- Kd [7]: 0.23 nM
- koff [7]: 0.000245 s⁻¹
- kon [7]: 1.07e+06 M⁻¹ s⁻¹
- koff [8]: 2.92e-05 s⁻¹
